{"source": "patent US20130177981A1", "experiment_in_all_cases": "cell-based or functional assay", "key": {"[1]": {"target": "gp41 of HIV-1 strain HC4 (HIV-1 strain HC4)"}, "[2]": {"target": "gp41 of HIV-1 strain NL4-3 (HIV-1 strain NL4-3)"}, "[3]": {"target": "gp41 of HIV-1 strain CC 1/85 (HIV-1 strain CC 1/85)"}, "[4]": {"target": "gp41 of HIV-1 strain DJ258 (HIV-1 strain DJ258)"}}}
{"substance": "T-20 (peptide)", "values": [{"measurement": "Inhibition of HIV-1 infectivity, IC50 (nM), HC4", "setting": "[1]", "value": 250, "unit": "nM"}, {"measurement": "Inhibition of HIV-1 infectivity, IC50 (nM), NL4-3", "setting": "[2]", "value": 700, "unit": "nM"}, {"measurement": "Inhibition of HIV-1 infectivity, IC50 (nM), CC 1/85", "setting": "[3]", "value": 1400, "unit": "nM"}, {"measurement": "Inhibition of HIV-1 infectivity, IC50 (nM), DJ258", "setting": "[4]", "value": 330, "unit": "nM"}]}
